Test results published in patent publication US11447809B2, “Evolution of tRNA synthetases” (President and Fellows of Harvard College, priority 2017, dated 2022).

B1: MbPylRS(IPYE): M. barkeri PylRS with transplanted PACE mutations V31I, T56P, H62Y, A100E (protein, UniProt Q6WRH6 1-419, looked up, variant V31I T56P H62Y A100E)
Pyrrolysine--tRNA ligase: MDKKPLDVLISATGLWMSRTGTLHKIKHHEISRSKIYIEMACGDHLVVNNSRSCRPARAFRYHKYRKTCKRCRVSDEDINNFLTRSTESKNSVKVRVVSEPKVKKAMPKSVSRAPKPLENSVSAKASTNTSRSVPSPAKSTPNSSVPASAPAPSLTRSQLDRVEALLSPEDKISLNMAKPFRELEPELVTRRKNDFQRLYTNDREDYLGKLERDITKFFVDRGFLEIKSPILIPAEYVERMGINNDTELSKQIFRVDKNLCLRPMLAPTLYNYLRKLDRILPGPIKIFEVGPCYRKESDGKEHLEEFTMVNFCQMGSGCTRENLEALIKEFLDYLEIDFEIVGDSCMVYGDTLDIMHGDLELSSAVVGPVSLDREWGIDKPWIGAGFGLERLLKVMHGFKNIKRASRSESYYNGISTNL
B2: MmPylRS(IPYE): M. mazei PylRS with transplanted PACE mutations V31I, T56P, H62Y, A100E (protein, UniProt Q8PWY1 1-454, looked up, variant V31I T56P H62Y A100E)
Pyrrolysine--tRNA ligase: MDKKPLNTLISATGLWMSRTGTIHKIKHHEISRSKIYIEMACGDHLVVNNSRSSRPARALRYHKYRKTCKRCRVSDEDLNKFLTKANEDQTSVKVKVVSEPTRTKKAMPKSVARAPKPLENTEAAQAQPSGSKFSPAIPVSTQESVSVPASVSTSISSISTGATASALVKGNTNPITSMSAPVQASAPALTKSQTDRLEVLLNPKDEISLNSGKPFRELESELLSRRKKDLQQIYAEERENYLGKLEREITRFFVDRGFLEIKSPILIPLEYIERMGIDNDTELSKQIFRVDKNFCLRPMLAPNLYNYLRKLDRALPDPIKIFEIGPCYRKESDGKEHLEEFTMLNFCQMGSGCTRENLESIITDFLNHLGIDFKIVGDSCMVYGDTLDVMHGDLELSSAVVGPIPLDREWGIDKPWIGAGFGLERLLKVKHDFKNIKRAARSESYYNGISTNL

System: luciferase position 361 and sfGFP amber suppression
Experiment: Amber suppression assays using several different reporters (luciferase and sfGFP)
Assay type: cell-based, E. coli
Settings: BocK; IPYE variant vs parent enzyme; FIGS. 9B-9D
Procedure: S1030 cells (25 μL) were electroporated with the appropriate plasmid(s) and recovered in SOC media (New England Biolabs) for 1 h while shaking at 37° C. Transformed cells were plated and grown overnight at 37° C. on LB agar containing the antibiotics required for plasmid maintenance. Single colonies were used to inoculate 2-3 mL of DRM containing antibiotics and were grown overnight at 37° C. while shaking at 230 rpm. The saturated overnight cultures were diluted 100-fold in a 96-well deep well plate using 1 mL of DRM containing the required antibiotic and supplemented with 1 mM ncAA where denoted. […] The plate continued to incubate with shaking at 37° C. for an additional 2-3 h until maximum luminescence signal was observed. Each luminescence measurement was taken on 150 μL of each culture, which had been transferred to a 96-well black wall, clear bottom plate (Costar). The A600 and luminescence measurements from each well were taken using an Infinite M1000 Pro microplate reader (Tecan). […] The raw luminescence value from each well was divided by the background-subtracted A600 value of the corresponding well to provide the luminescence value normalized to cell density. […]

Row | Molecule | activity in amber suppression assays using several different reporters
1 | B1 | dramatically enhanced
2 | B2 | improved, albeit more modestly
